According to patent publication US20150064731A1 (PROMEGA, published 2015):

Biological target: the molecule itself
Test: gel filtration chromatography (Superdex 200 5/150 GL) of the purified protein; self-association
From the text: Gel filtration analysis was used to verify the expected molecular weight of the purified OgLuc proteins based on the theoretical values and consequently to determine their oligomeric state. A comparison between the relative hydrodynamic volume of the OgLuc variants C1+A4E and 9B8 was made by gel filtration chromatography. For this analysis, the nucleotide sequence for the OgLuc variants, C1+A4E and 9B8, were cloned into a HQ-Tagged Flexi® Vector (Promega Corp.) to create a HQHQHQ (SEQ ID NO: 580) N-terminally tagged protein that was overexpressed in E. coli KRX cells. The overexpressed proteins were purified using the HisLink™ Protein Purification System (Promega Corp.) according to manufacturer's instructions. Samples of each individual standard and sample protein were analyzed by gel filtration chromatography, which was performed at 24° C. on an Agilent 1200 HPLC, using a Superdex 200 5/150 GL column (GE Healthcare) with a flow rate of 0.25 mL/min (FIGS. 43A-B). The mobile phase (i.e., running buffer) consisted of 50 mM Tris and 150 mM NaCl, pH 7.5. Protein elution was monitored at 214 and 280 nm. A standard calibration curve was generated using: 1) Ovalbumin, 43 kDa (GE Healthcare), 2) Carbonic Anhydrase, 29 kDa (Sigma) and 3) Myoglobin, 17 kDa (Horse Heart, Sigma). The molecular weights of the purified proteins were calculated directly from the calibration curve.

B1: OgLuc variant 9B8, HQHQHQ N-terminally tagged (enzyme)
chain: HQHQHQFTLEDFVGDWRQTAGYNLDQVLEQGGLSSLFQKLGVSVTPIQKIVLSGENGLKIDIHVIIPYEGLSGYQMGQIEKIFKVVYPVDDHHFKVILHYGTLVIDGVTPNMIDYFGRPYEGIAVFDGKKITVTGTLWNGNKIIDERLINPDGSLLFRVTINGVTGWRLCERILA
notes: Overexpressed in E. coli KRX and purified with the HisLink Protein Purification System for gel filtration
binding result: no binding
